Results: PMC5065005 (The FEBS journal, 2016)

Target: the molecule itself
Assay: 1D 1H NMR spectra at increasing protein concentration

B1: human FBxo3 ApaG domain, residues 278–407 (domain or fragment, UniProt Q9UK99 278-407, looked up)
chain: VATTGDITVSVSTSFLPELSSVHPPHYFFTYRIRIEMSKDALPEKACQLDSRYWRITNAKGDVEEVQGPGVVGEFPIISPGRVYEYTSCTTFSTTSGYMEGYYTFHFLYFKDKIFNVAIPRFHMACPTFR
binding result: binds
